Test results as given in US20030224458A1 (published 2003).
Ends that are not written are not given here.

target: T1, HGPRBMY23 polypeptide (novel human G-protein coupled receptor) (human, UniProt Q96P68 1-337); assay: phage display panning on CHO-K1 cells transfected with HGPRBMY23, after preadsorption on integrin and parental cells
T1 construct: For phage panning it was expressed on CHO-K1 cells from the pcDNA3.1 Hygro-HGPRBMY23 construct; For immunohistochemistry it was the native protein in paraffin-embedded, formalin-fixed tissue sections; also called GPCR92
Method: Typically, this corresponded to one P175 flask with near-confluent growth. A similar number of parental cells were grown for preadsorption. One day prior to panning, two or three 96-well Immulon plates were coated integrin. Plates were coated overnight at 4° C. in NaHCO₃, pH 9.5, with ˜50 ng of αVβ3 integrin (Chemicon; Cat. #CC1020) per well per library.
On the day of panning, growth medium was discarded and cells were washed with 10 ml PBS by allowing the buffer to flow over the cells. The PBS was removed and 10 ml Tris-EDTA detaching buffer (Gibco Cat. #13150-016; no trypsin) was added for 2 min. Plates were tapped and/or pipetted up and down to detach cells. This was done quickly to minimize the exposure of the cells to this reagent. Cells were pelleted by centrifugation at 3K, and then washed with 20 ml PBS. Cells were resuspended cells in PBS with 2% milk blocking agent plus protease inhibitor (EDTA-free; Roche Cat. #1 873 580). For each library, cell suspensions of ˜500 ul were used. Cells were blocked for 30-60 min with gentle rocking at room temperature. The integrin-coated wells were washed 3× in PBST, then blocked with 2% BSA in PBS for 30 min or more. To preadsorb against integrin, input phage was added to the integrin-coated wells, and incubated for 30 min or more.
At this stage, the blocked parental cells were divided into the required number of aliquots (500 ul aliquot/library). The phage supernatants were added from the integrin-preadsorption step. Preadsorption against the parental cells was carried out for 30 min or more with gentle rocking. The blocked transfected cells were divided into the required number of aliquots (500 ul aliquot per library). The transfected cells were pelleted, and the supernatant was discarded. The phage supernatants from the two preadsorption steps were added, and cells were incubated with gentle rocking for 2 h or more. Cells were washed 6-8×with PBST at 5 min intervals. Each wash was performed by gently pipetting the cells up and down, and cells were centrifuged at low speed. […]

T1 sequence (Q96P68 whole entry): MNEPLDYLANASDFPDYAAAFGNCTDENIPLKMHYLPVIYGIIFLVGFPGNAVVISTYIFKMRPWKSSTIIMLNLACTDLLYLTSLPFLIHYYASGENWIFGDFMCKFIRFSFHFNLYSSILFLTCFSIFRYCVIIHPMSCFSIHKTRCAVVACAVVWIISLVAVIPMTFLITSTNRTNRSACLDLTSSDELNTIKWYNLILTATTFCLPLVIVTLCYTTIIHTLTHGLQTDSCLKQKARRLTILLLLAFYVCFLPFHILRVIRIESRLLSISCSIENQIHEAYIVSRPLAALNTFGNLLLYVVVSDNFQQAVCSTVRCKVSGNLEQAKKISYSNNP

| binding result | Binder |
| --- | --- |
| binds | FVGTFDWQSYPLLSF (not fully specified (N-terminus, C-terminus), Synthetic versions are described as N-acetylated peptides made on Knorr amide resin (C-terminal amide)) [Peptide modulator of HGPRBMY23 FVGTFDWQSYPLLSF] |
| binds | SRVSGAKVWFLSNWS (also: synthetic versions N-acetylated, C-terminal amide, also phage-displayed, Synthetic versions are described as N-acetylated peptides made on Knorr amide resin (C-terminal amide)) [Peptide modulator of HGPRBMY23 SRVSGAKVWFLSNWS] |
| binds | LFASSDWSSFPVLVF (also: synthetic versions N-acetylated, C-terminal amide, also phage-displayed, Synthetic versions are described as N-acetylated peptides made on Knorr amide resin (C-terminal amide)) [Peptide modulator of HGPRBMY23 LFASSDWSSFPVLVF] |
